According to patent publication US10876130B2, “HPPD variants and methods of use” (Bayer CropScience LP, priority 2014, dated 2020):
“And” between values parts separate entries of the source, which are not always exact repeats. Equal values may be shown once.

How the values were obtained:
HPPD enzymes [1] = settings: for 125 μM HPP/500 μM HPP × 100 / 500 μM HPP, 5 μM TBT/500 μM HPP × 100: Table 3; for 125 μM HPP/500 μM HPP × 100: rate at limiting relative to high substrate; for 500 μM HPP, 5 μM TBT/500 μM HPP × 100 / 500 μM HPP + 5 μM TBT (as % of 500 μM HPP, dataset 1): rate with 5 μM tembotrione relative to rate without; for 500 μM HPP, dataset 1: enzymatic rate at high substrate (500 μM HPP), no inhibitor, measure of Vmax, E. coli extract; for 125 μM HPP (as % of 500 μM HPP, dataset 1): rate at limiting substrate relative to high substrate, measure of substrate affinity (Km); for 500 μM HPP + 5 μM TBT (as % of 500 μM HPP, dataset 1): resistance to tembotrione
Method: The in vitro kinetic assay couples the production of Homogentisic acid with the enzyme Homogentisate 1,2-dioxygenase (HGO). HGO converts homogentisic acid to maleoacetoacetate, which is easily quantified by UV absorption at 321 nm. The assay is carried out in real-time, and product can be quantified continuously in a 96-well spectrophotometer.
The kinetic assay was performed in two stages.
Experimentally, the first stage enzymatic assays were performed as follows. […] The cultures were incubated at 37 degrees C. When the OD reached 0.6-0.7, the temperature was decreased to 30 degrees C. and the cultures were incubated overnight. Cultures were sampled the next afternoon for the pyomelanin assay and the remaining culture was pelleted at 6500 rpm in an SA600 rotor, the supernatant was removed, and the pellets were frozen overnight at −20 degrees Celsius or until assay.
Just before assay, the pellets were resuspended in 1 ml of buffer (20 mM Hepes pH 7.0, 50 mM NaCl). Two ul of LYSONASE™ (Novagen) was added to each resuspended pellet, and then mixed. Two ml of buffer and 4 ul of LYSONASE™ were then added to the HGO pellet. The suspensions were incubated for 45 minutes at room temperature, and then frozen at −20 degrees for at least 1 hour. Then, the solutions were thawed at room temperature with occasional brief immersion in a 37 degree C. water bath and a little agitation. The cultures were spun down for 15 min at 14000 rpm in a Sorvall SA 600 rotor. The supernatants were carefully pipetted off the pellets (with care not to disturb the pellets), and transferred into 1 column of a 96 well plate, and 0.5 ml of buffer was added to each of the samples and pipetted up and down to mix. The HGO supernatant was collected and the reactions were performed in the following order. The HGO was added to the 500 μM HPP solution and the 500 μM solution+5 μM TBT. Immediately 100 ul of the 500 μM HPP solution was pipetted into even-numbered rows (5 reps) and 100 ul of the 500 μM HPP+5 μM TBT solution was pipetted into odd-numbered rows (5 reps). The reactions were divided between two 96-well plates to allow a sufficient number of samples to be analyzed (4 assays total in one 96-well plate, and 6 in another). Then, 100 ul of the enzyme solutions or buffer was pipetted first into a row of wells containing 500 μM HPP+5 μM TBT followed by gentle mixing by stirring with the pipette tips, and next into a row of wells containing 500 μM HPP followed by gentle mixing by stirring with the pipette tips. Product formation was measured by absorbance at 321 nm at 5 sec intervals. The reduced values (equivalent to the absorbance change over 50 sec, and calculated as OD/min) were analyzed. Five sets of data were collected. This was then repeated after addition of the HGO to the 125 μM HPP, using the same steps as above.
The enzymatic assay for each protein at 500 μM HPP is shown as milliOD units/minute, while the relative activity at 500 μM HPP+5 μM TBT, and also 125 μM HPP, are shown as a percentage of the activity at 500 μM HPP.

HPPD enzymes [2] = assay: pyomelanin (brown color) colorimetric assay of HPPD enzymes overexpressed in E. coli, with tembotrione; assay type: cell-based; settings: among Axmi309H mutants
Method: A specific, although non-limiting, type of assay that can be used to evaluate the HPPD sequences of the invention is a colorimetric assay. In this assay, a YT-broth-type culture medium with 1% agarose, 5 mM L-Tyrosine and 42 mM Succinate, which contains the selection agent for the vector pSE420 (Invitrogen, Karlsruhe, Germany) or a modified version of pSE420 (pSE420(RI)NX) is poured into deep well plates. E. coli culture in the exponentional growth phase which contains the vector pSE420-HPPDx (HPPDx means any gene coding for a putative HPPD enzyme/protein) is applied to each well.
Enzymes with improved tolerance to TBT were identified by this approach. The three-dimensional structure of Pseudomanas HPPD was studied to identify residues in the active site that were likely to be involved in substrate binding.
Briefly, overexpression of HPPD enzymes (in E. coli) on rich growth medium leads to the production of the compound pyomelanin. Pyomelanin is deep brown in color, therefore, inspection of HPPD enzymes grown on LB agar in a multi-well plate allows visual comparison of the enzymatic activity of HPPD enzymes. This experimental approach also allows varying concentrations of HPPD inhibitors (such as tembotrione) to be added to individual sample wells, which allows visual assessment of the tolerance of HPPD inhibitors by the randomized HPPD enzymes.

Soybean plants = assay: tolerance of soybean plants to mesotrione, spray test; assay type: in vivo
Method: Soybean plants expressing an HPPD inhibitor tolerant enzyme of the present invention, along with a gene conferring tolerance to glyphosate and a gene conferring tolerance to glufosinate, were tested for tolerance to mesotrione. A DeVries Tracker Sprayer was calibrated prior to each spraying. The chemical formulation used for mesotrione (MST) testing was Callisto® 4 SC formulation. Spray tests were conducted using 3× the field rate (equivalent to 9 fluid ounce per acre of the same herbicide formulation that containing 40% the active ingredient (AI), mesotrione), which equals 316 grams AI per hectare. Tolerance was evaluated one week after spraying. A tolerance rating of “0” was assigned to plants that their shoot apexes, newly emerged trifoliates and some axillary buds were completely bleached. A rating of “1” was assigned to plants having slight tolerance, i.e., the newest plant shoot tissues had some green and are not bleached completely. A rating of “2” was assigned to plants showing moderate tolerance, i.e., more than 50% of the leaf area of the top three trifoliates showing no chlorosis or bleaching damage. A rating of “3” was assigned to plants showing nearly perfect tolerance, i.e., less than 10% of the leaf area showing chlorosis or very slight bleaching.

Row | Molecule | 125 μM HPP/500 μM HPP × 100 (HPPD enzymes [1]) | 500 μM HPP, 5 μM TBT/500 μM HPP × 100 (HPPD enzymes [1]) | 500 μM HPP, dataset 1 (HPPD enzymes [1]) | 125 μM HPP (as % of 500 μM HPP, dataset 1) (HPPD enzymes [1]) | 500 μM HPP + 5 μM TBT (as % of 500 μM HPP, dataset 1) (HPPD enzymes [1]) | tolerance to tembotrione in the brown color assay (HPPD enzymes [2]) | number of plants with tolerance rating 1 (Soybean plants; same spray test, 1 = slight tolerance, newest shoot tissues had some green) | number of plants with tolerance rating 2 (Soybean plants; same spray test, 2 = moderate tolerance, more than 50% of leaf area of top three trifoliates without chlorosis or bleaching) | number of plants with tolerance rating 3 (Soybean plants; same spray test, 3 = nearly perfect tolerance, less than 10% of leaf area showing chlorosis or very slight bleaching) | number of plants with tolerance rating 0 (Soybean plants; soybean expressing the clone, mesotrione (Callisto 4 SC) 316 grams AI per hectare (3× field rate), one week after spraying, 0 = completely bleached)
1 | PfHPPDEvo40: reference Pseudomonas fluorescens HPPD variant, SEQ ID NO:3 in Table 2 (protein, variant HPPD) MADLYENPMGLMGFEFIEFASPTPGTLEPIFEIMGFTKVATHRSKNVHLYRQGEINLILNNEPNSIASYFAAEHGPSVCGMAFRVKDSQKAYNRALELGAQPIHIDTGPMELNLPAIKGIGGAPLYLIDRFGEGSSIYDIDFVYLEGVERNPVGAGLKVIDHLTHNVYRGRMVYWANFYEKLFNFREARYFDIKGEYTGLTSKAMSAPDGMIRIPLNEESSKGAGQIEEFLMQFNGEGIQHVAFLTDDLVKTWDALKKIGMRFMTAPPDTYYEMLEGRLPDHGEPVDQLQARGILLDGSSVEGDKRLLLQIFSETLMGPVFFEFIQRKGDDGFGPSNFKELFESIERDQVRRGVLTAD | 57 | 44 | 16 milliOD units/minute and 19 milliOD units/minute | 61% and 65% | 42% and 65% | – | – | – | – | –
2 | PfHPPDEvo41: reference Pseudomonas fluorescens HPPD variant, SEQ ID NO:4 in Table 2 (protein, variant HPPD) MADLYENPMGLMGFEFIEFASPTPGTLEPIFEIMGFTKVATHRSKNVHLYRQGEINLILNNEPNSIASYFAAEHGPSVCGMAFRVKDSQKAYNRALELGAQPIHIDTGPMELNLPAIKGIGGAPLYLIDRFGEGSSIYDIDFVYLEGVERNPVGAGLKVIDHLTHNVYRGRMVYWANFYEKLFNFREARYFDIKGEYTGLTSKAMSAPDGMIRIPLNEESSKGAGQIEEFLMQFNGEGIQHVAFLTDDLVKTWDALKKIGMRFMTAPPDTYYEMLEGRLPDHGEPVDQLQARGILLDGSSVEGDKRLLLQIFSETLMGPVFFEFIQRKGDDGFGPWNFAQLFESIERDQVRRGVLTAD | 50 | 39 | 64 milliOD units/minute and 73 milliOD units/minute | 34% and 54% | 28% and 52% | – | – | – | – | –
3 | Axmi309H-PWG: Axmi309H protein containing E335P, G336W, and A340G; SEQ ID NO:21 (protein, variant HPPD) MADLYENPMGLMGFEFIEFASPTPGTLEPIFEIMGFTKVATHRSKNVHLYRQGAINLILNNEPHSVASYFAAEHGPSVCGMAFRVKDSQKAYNRALELGAQPIHIETGPMELNLPAIKGIGGAPLYLIDRFGEGSSIYDIDFVFLEGVDRNPVGAGLKIIDHLTHNVYRGRMAYWANFYEKLFNFREIRYFDIKGEYTGLTSKAMTAPDGMIRIPLNEESSKGAGQIEEFLMQFNGEGIQHVAFLTDDLVKTWDQLKKIGMRFMTAPPDTYYEMLEGRLPNHGEPVDQLQSRGILLDGASDKEDKRLLLQIFSETLMGPVFFEFIQRKGDDGFGPWNFKGLFESIERDQVRRGVLATE | – | – | – | – | – | most tolerant to tembotrione | 18 | 23 | 12 | 5
